Experimental findings from PMC3633087 are described below.

The target of the assay is p11-AnxA2 peptide cassette (UniProt P60903). Description: crystal structure.

With “p11-AnxA2 peptide cassette (from UniProt P60903 1-97)”, the stoichiometry N was 2.
